Data as given in patent publication US20260234238A1 (GEOVISTA, published 2026).
Positions count from the first letter of the chain named. “And” between values parts separate entries of the source, which are not always exact repeats. Equal entries are not always repeated.

T1: recombinant histidine-tagged canine interleukin-13 (cIL-13) (canine, UniProt Q9N0W9 19-131, N-linked glycans attached to asparagine residues at positions 38, 48, 56, and 71)
T1 sequence: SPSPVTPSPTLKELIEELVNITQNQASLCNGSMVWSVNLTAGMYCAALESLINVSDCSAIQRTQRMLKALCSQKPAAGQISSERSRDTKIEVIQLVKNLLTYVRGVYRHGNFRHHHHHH

B1: Ab4 (antibody, V domains shown)
VH: EVQLVQSGAEVKKPGASVKVSCKTSGYTFIDYPMYWVRQAPGAGLEWMGYIDPYNGATSYNQNFKGRVTLTADKSTSTAYMELSSLRAGDIAVYYCATAVVATDVMENWGQGTLVTVSS
VL: EIVMTQSPASLSLSQEERVTITCRASQNVRNALAWYQQKPGQAPKLLIYLTSNRYTGVPSRFSGSGSGTDFTFTISSLEPEDVAVYYCLQHWNYPLTFGAGTKVELK
notes: Caninized antibody
B2: Ab21 (antibody, V domains shown)
VH: B1 VH with K12V, T28S, I30T, M34I, M48I, A57G, S59T, G66D
VL: B1 VL with M4L, R24K, L33V, Y36F, L46A, T51A, F73L, V85D, Y87F
notes: Caninized antibody
B3: Ab22 (antibody, V domains shown)
VH: B1 VH with K12V, T28S, I30T, M34I, M48I, A57G, S59T, G66D
VL: DIVLTQTPLSLSVSPGETASISCKASQNVRNAVAWFRQKPGQSPQALIYLASNRYTGVPDRFSGSGSGTDFTLRISRVEAEDTGDYFCLQHWNYPLTFGAGTKVELK
notes: Caninized antibody
B4: Ab5 (antibody, V domains shown)
VH: B1 VH with N63K, K65Q, K74T, T98R
VL: B1 VL
notes: Caninized antibody
B5: Ab3 (antibody, V domains shown)
VH: B1 VH with K12V, T28S, I30T, M34I, M48I, A57G, S59T, G66D
VL: B1 VL
notes: Caninized antibody
B6: Ab24 (antibody, V domains shown)
VH: B1 VH
VL: B3 VL
notes: Caninized antibody
B7: Ab23 (antibody, V domains shown)
VH: B1 VH with K12V, T28S, I30T, M34I, M48I, A57G, S59T, G66D
VL: B3 VL with L4M, V29L, V33L, A51V, T56P, D85V, F87Y, N93Q
notes: Caninized antibody
B8: 32A10-#20 mouse monoclonal antibody (antibody, V domains shown)
VH: EVQLQQSGPELVKPGASVKVSCKTSGYSFTDYPIYWVRQSHGESLEWIGYIDPYNGGTTYNQNFKDKATLTVDKSSSTAFMHLNSLTSEDSAVYFCATAVVATDVMENWGQGTSVTVSS
VL: DIVLTQSQKFMSTSVGDRVSITCKASQNVRNAVAWFQQKPGQSPKALIYLASNRYTGVPDHFTGSGSGTDFTLTISNVQSEDLADYFCLQHWNYPLTFGAGTKLELK
notes: also called Mouse 32A10; Parental antibody (Mouse 32A10)
B9: Chimeric 32A10 CO (antibody, V domains shown)
VH: B8 VH with E1Q, Q5K, N84Y
VL: B8 VL
notes: also called Chimeric antibody (CO type)
B10: Ab2 (antibody, V domains shown)
VH: B1 VH with N63K, K65Q, K74T, T98R
VL: B1 VL with M4L, R24K, L33V, Y36F, L46A, T51A, F73L, V85D, Y87F
notes: Caninized antibody
B11: Ab10 (antibody, V domains shown)
VH: B1 VH
VL: B3 VL with L4M, V29L, V33L, A51V, T56P, D85V, F87Y, N93Q
notes: Caninized antibody
B12: Ab12 (antibody, V domains shown)
VH: B1 VH with K12V, T28S, I30T, M34I, M48I, A57G, S59T, G66D
VL: DIVMTQTPLSLSVSPGETASISCKASQSLRSALAWFRQKPGQSPQRLIYLVSNRYPGVPDRFSGSGSGTDFTLRISRVEAEDTGVYYCLQHWQFPLTFGAGTKVELK
notes: Caninized antibody
B13: Ab14 (antibody, V domains shown)
VH: B1 VH with N63K, K65Q, K74T, T98R
VL: B12 VL
notes: Caninized antibody
B14: Ab8 (antibody, V domains shown)
VH: B1 VH with N63K, K65Q, K74T, T98R
VL: B1 VL with N28S, N31S, L50G, N93S
notes: Caninized antibody
B15: Ab9 (antibody, V domains shown)
VH: B1 VH with N63K, K65Q, K74T, T98R
VL: B3 VL
notes: Caninized antibody
B16: Ab1 (antibody, V domains shown)
VH: B1 VH
VL: B1 VL with M4L, R24K, L33V, Y36F, L46A, T51A, F73L, V85D, Y87F
notes: Caninized antibody
B17: Ab11 (antibody, V domains shown)
VH: B1 VH with N63K, K65Q, K74T, T98R
VL: B12 VL with S28N, S31N, R46A, F94Y
notes: Caninized antibody
B18: Ab6 (antibody, V domains shown)
VH: B1 VH with K12V, T28S, I30T, M34I, M48I, A57G, S59T, G66D
VL: B1 VL with N28S, N31S, L50G, N93S
notes: Caninized antibody

target: T1, recombinant histidine-tagged canine …; assay: cell-based or functional assay

TF-1 cell proliferation inhibition IC50	Binder
71.5 nM	B1
1.13 nM	B2
0.98 nM	B3
34.2 nM	B4
52.7 nM	B5
4.09 nM	B6
35.2 nM	B7

target: T1, recombinant histidine-tagged canine …; assay: cell-based or functional assay; remark: another data set of the same source

Inhibitory Activity on TF-1 Cell Proliferation IC50	Binder
3.97 nM	B8

target: T1, recombinant histidine-tagged canine …; assay: cell-based or functional assay; remark: another data set of the same source

inhibition of IL-13-dependent TF-1 cell proliferation, IC50	Binder
2.9 to 4.2 nM	B8

target: T1, recombinant histidine-tagged canine …; assay: ELISA, cIL-13-coated plate

EC50	Binder
0.0694 µg/mL and 0.463 nM	B8

target: T1, recombinant histidine-tagged canine …; assay: cell-based or functional assay; remark: another data set of the same source

TF-1 cell proliferation inhibition IC50 (Average)	TF-1 cell proliferation inhibition IC50 (Test 1)	TF-1 cell proliferation inhibition IC50 (Test 2)	TF-1 cell proliferation inhibition IC50 (Test 3)	Binder
437 ng/ml and 2.91 nM	494 ng/ml and 3.29 nM	492 ng/ml and 3.28 nM	325 ng/ml and 2.17 nM	B8

target: T1, recombinant histidine-tagged canine …; assay: ELISA, His-tagged cIL-13 on nickel-coated plate
Experimental: In one embodiment of the present disclosure, recombinant canine IL-13 (cIL-13) protein with a histidine tag was dispensed onto nickel-coated plates (Thermo Fisher, #15442) at 100 ng/100 μL per well and incubated at room temperature for 1 hour. The plates were then washed three times with 1×PBST, and serial dilutions of the chimeric antibodies in 1×PBS were added and incubated at room temperature for 1 hour to allow antigen-antibody binding. After three washes with 1×PBST, an HRP-conjugated secondary antibody that cross-reacts with canine antibodies was diluted 1:100 in casein buffer and added at 100 μL per well, followed by incubation at 37° C. for 30 minutes. The HRP-conjugated secondary antibody used may be Jackson ImmunoResearch, #115-036-071, and the casein buffer may be Thermo Fisher Scientific, #37528; however, these examples are not intended to limit the scope of the present disclosure. After another three washes with 1×PBST, TMB was added to initiate color development, and the reaction was terminated by the addition of an equal volume of 1.0 N sulfuric acid.

EC50	Binder
0.218 µg/mL and 1.45 nM	B8
0.162 µg/mL and 1.08 nM	B9

target: T1, recombinant histidine-tagged canine …; assay: ELISA, His-tagged cIL-13 on nickel plate
Experimental: A conventional ELISA method was used to assess the antigen reactivity of the caninized antibodies. The inventors of the present invention coated 96-well nickel plates with His-tagged cIL-13 at a concentration of 1 μg/mL and incubated the plates at room temperature for 1 hour. Wells were washed three times using 200 μL of wash buffer per well; the wash buffer consisted of 1×PBS containing 0.1% Tween-20. In one embodiment of the present disclosure, diluted antibodies were added to the wells at 100 μL per well and incubated again at room temperature for 1 hour. The dilution buffer used was a 1:1 mixture of 25 mL of 1× casein solution and 25 mL of 1×PBS. Next, 50 μL of HRP-conjugated goat anti-human IgG was diluted in 10 mL of dilution buffer and dispensed at 100 μL per well, followed by incubation at room temperature for 1 hour. The wells were then washed three times with 200 μL of wash buffer. TMB substrate (50 μL per well) was added. The plates were incubated at room temperature for 10 minutes. The reaction was stopped by adding 50 μL per well of 1 N sulfuric acid as a stop solution, and absorbance was measured at 450 nm using a spectrophotometer.

EC50	Binder
0.0572 µg/mL	B1
0.122 µg/mL	B2
0.0782 µg/mL	B10
0.0819 µg/mL	B11
0.137 µg/mL	B3
4.39 µg/mL	B12
0.0765 µg/mL	B4
1.78 µg/mL	B13
0.0459 µg/mL	B5
12.4 µg/mL	B14
0.0926 µg/mL	B15
0.134 µg/mL	B6
0.0564 µg/mL	B16
0.111 µg/mL	B17
0.246 µg/mL	B18
0.108 µg/mL	B7
